{"source": "the nanobody polyreactivity screen of Harvey et al. (2022)", "data": [{"assay": "yeast display, Sf9 membrane polyspecificity reagent, FACS + sequencing; frameworks hold sequencing errors", "how_it_was_run": "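Galactose-induced (36–48 hours) yeast carrying a synthetic nanobody display library were exposed to 10% biotinylated, detergent-solubilized Sf9 membrane reagent at 4 °C for 1 hour. FACS followed streptavidin microbead enrichment, using low and high (top ~1%) gates for expression (anti-HA) and reagent binding (streptavidin). Colony PCR, MiSeq 2 × 250 sequencing and CDR-length filtering followed. Labels for polyreactivity reflect the gate of origin.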", "values": [{"sequence": "QVQLVESGGGLVQAGGSLRLSCAASGRIFGGYAMGWYRQAAGKERELVAAISRRGGSTYYADSVKGRFTISRDNAKNTVYLQMNSLKPEDTAVYYCNAVLSDQARLTRVDYDYWGQGTQVTVSS", "polyreactivity (PSR sort gate)": "high polyreactivity"}, {"sequence": "QVQLVESGGGLVQAGGSLRLSCAASGRIFGGYAMGWYRQAPGKERELVAAIRDSGRTYYADSVKGRFTISRDNEKNTVYLQMNRLKPEDTAVYYCAADAHSSYSPFRWYDYWGQGSQVTVSS", "polyreactivity (PSR sort gate)": "low polyreactivity"}, {"sequence": "QVQLVESGGGLVQAGGSLRLSCAASGRIFGGYAMGWYRQAPGKERELVAVISGRGGSTYYADSVKGRFTISRDNAMNTVYLQMNSLKPEDTAVYYCTVYRRIQRYGPQSYDYWGQGTQVTVSS", "polyreactivity (PSR sort gate)": "high polyreactivity"}, {"sequence": "QVQLVESGGGLVQAGGSLRLSCAASGRIFGGYTMGWYRQAPGKEREFVAAITSSGGSTYYADSVKGRLTISRDNAKNTVYLQMNSLKPEDTAVYYCAVADYYDDYDYWGQGTQVTVSS", "polyreactivity (PSR sort gate)": "low polyreactivity"}, {"sequence": "QVQLVESGGGLVQAGGSLRLSCAASGRIFGGYTMGWYRQAPGKERELVAAIRWSGGRTYYADSVKGRFTISRDNAKNTVYLQMNSLKPEDTAVYYCNRTPRYTIRYGYWGQGTQVTVSS", "polyreactivity (PSR sort gate)": "high polyreactivity"}, {"sequence": "QVQLVESGGGLVQAGGSLRLSCAASGRIFGGYTMGWYRQAPGKERELVAAITGSGGRTYYADSVKGRFTISRDKAKNTVYLQMNSLKPDETAVYYCNTVYRYRYYWGQGTQVTVSS", "polyreactivity (PSR sort gate)": "high polyreactivity"}, {"sequence": "QVQLVESGGGLVQAGGSLRLSCAASGRIFGHYAMGWYRPAPGKERELVAAISTGGSTYYADSVKGRFTISRDNAKNTVYFQMNSLKPEDTAVYFCNKRPVRRKYDYWGQGTHVTVSS", "polyreactivity (PSR sort gate)": "low polyreactivity"}, {"sequence": "QVQLVESGGGLVQAGGSLRLSCAASGRIFGHYAMGWYRQAPGKERELVAAINWRGGSTYYADSVKGRFTISRDNAKNTVYLQMNSLKPEDTAVYYCAAANFRSYLSQTGPRAYYYWGQGTQVTVSS", "polyreactivity (PSR sort gate)": "low polyreactivity"}, {"sequence": "QVQLVESGGGLVQAGGSLRLSCAASGRIFGHYAMGWYRQAPGKERELVAAISQSGTNTYYADSVKGRFTISRDNAKNTVYLQMNSLKPEDTAVYYCAAKPPRRYQLMDYWGQGTKVTVSS", "polyreactivity (PSR sort gate)": "high polyreactivity"}, {"sequence": "QVQLVESGGGLVQAGGSLRLSCAASGRIFGHYVMGWYRQAPGKERELVAGISSGGITYYADSVKGRFTISRDNAKNTVYLQMNSLKPEDTAVYYCAARVYYVRGSDTMDYWGQGTQVTVSS", "polyreactivity (PSR sort gate)": "low polyreactivity"}, {"sequence": "QVQLVESGGGLVQAGGSLRLSCAASGRIFGINAMGCYRQAPGKERELVAAINWSGGSTYYADSVKGRFTISRDNAKNTVYLQMNSLKPEDTEVYYCAAQKYKRVGYWGQVTQVTVSS", "polyreactivity (PSR sort gate)": "high polyreactivity"}, {"sequence": "QVQLVESGGGLVQAGGSLRLSCAASGRIFGINAMGWYRQAPGKERELVAAINWSGGSTYYADSVKGRFTISRDNAKNTVYLQMNSLKPEDTAVYYCAAQKYKRVGYWGQGTQVTVSS", "polyreactivity (PSR sort gate)": "high polyreactivity"}, {"sequence": "QVQLVESGGGLVQAGGSLRLSCAASGRIFGINAMGWYRQAPGKERELVAAITSGVSTNYADSVKGRFTISRDNAKNTVYLQMNSLKPEDTAVYYCATRRNRSYDYWGQGTQVTVSS", "polyreactivity (PSR sort gate)": "low polyreactivity"}, {"sequence": "QVQLVESGGGLVQAGGSLRLSCAASGRIFGIYAMGWHRQAPGKERELVASITDGTITNYADSVKGRFTISRDNAKNTVYLQMNSLKPEDTAVYYCAAGTQAHAYVVRPIEMDYSGQGTQVTVSS", "polyreactivity (PSR sort gate)": "low polyreactivity"}, {"sequence": "QVQLVESGGGLVQAGGSLRLSCAASGRIFGIYAMGWYRQAPGKERELVADIDVSDGSTYYADSVKGRFTISRDNAKNTVYLQMNSLKPEDTAVYYCNAEDSSRWYDWYLHDYWGQGTQVTVSS", "polyreactivity (PSR sort gate)": "high polyreactivity"}, {"sequence": "QVQLVESGGGLVQAGGSLRLSCAASGRIFGIYAMGWYRQAPGKERELVATITDSDDSTYYADSVKGRFTISRDNAKNTVYLQMNSLKPEDTAVYYCAAADGIYARYFFSRFPRFDYWGQGTQVTVSS", "polyreactivity (PSR sort gate)": "low polyreactivity"}, {"sequence": "QVQLVESGGGLVQAGGSLRLSCAASGRIFGKNAMGWYRQAPGKERELVAAISANGGSTSYADSVKGRFTISRDNAKNTVYLQMNSLKPEDTAVYYCNVRRQLRGDYWGHGTQVTVSS", "polyreactivity (PSR sort gate)": "high polyreactivity"}, {"sequence": "QVQLVESGGGLVQAGGSLRLSCAASGRIFGKYAMGWYRQAPGKERELVAAITRRGGSTYYADSVKGRFTISRDNAKNTVYLQMNSLKPEDTAVYYCNAALTGYRVSPTRHRYDYWGQGTQVTVSS", "polyreactivity (PSR sort gate)": "high polyreactivity"}, {"sequence": "QVQLVESGGGLVQAGGSLRLSCAASGRIFGKYVMGWYRQAPGKERELVAAISRSGGSTSYADSVKGRFTISRDNAKNTVYLQMNSLKPEDTEVYYCAAGFLSGWWFAYDYWGQGTQVTVSS", "polyreactivity (PSR sort gate)": "high polyreactivity"}, {"sequence": "QVQLVESGGGLVQAGGSLRLSCAASGRIFGLNAMGWSRQAPGKERELVASITYSGGSTYYADSVKGRFTISRDNAKNTVYLQMNSLKPEDTAVYYCAARIIVDDVGTKYYYWGQGTQVTVSS", "polyreactivity (PSR sort gate)": "high polyreactivity"}, {"sequence": "QVQLVESGGGLVQAGGSLRLSCAASGRIFGLNAMGWYRQAPGKERELVAAIDQGDGITYYADSVKGRFTISRDNAKNTVYLQMNSLKPEDTAVYYCAAEVSYKEIYQYYWIYPAYNYWGQGTQVTVSS", "polyreactivity (PSR sort gate)": "high polyreactivity"}, {"sequence": "QVQLVESGGGLVQAGGSLRLSCAASGRIFGLYALGWYRPAPGKEREFVAAIRWIGGGTYYADSVKGRFTISRDHAKNTVYLQINSLKPEDTAVDSCNVVTWYYVFRPWEYDYWGQGTQVTVSS", "polyreactivity (PSR sort gate)": "low polyreactivity"}, {"sequence": "QVQLVESGGGLVQAGGSLRLSCAASGRIFGLYAMGWYRHAPGKEREFVAANNWDGGSTFYADSVKGRFTISRDNAKNTVYLQMNSLKPEDTAVYSCAADVYSYVSYSTYVSVFTYDYWGQGTQVTVSS", "polyreactivity (PSR sort gate)": "low polyreactivity"}, {"sequence": "QVQLVESGGGLVQAGGSLRLSCAASGRIFGLYAMGWYRQAPGKERELVAGITYSGGTTYYADSVKGRFTISRDNAKNTVYLQMNSLKPEDTAVYYCNKRWYYQYGKYGYWGQGTQVTVSS", "polyreactivity (PSR sort gate)": "high polyreactivity"}, {"sequence": "QVQLVESGGGLVQAGGSLRLSCAASGRIFGLYAMGWYRQAPGKERELVATITRRAGSTYYADSVKGRFTISRDNAKNTVYLQMNSLKPEDTAVYYCAARSWANYDYWGQGTQVTVSS", "polyreactivity (PSR sort gate)": "high polyreactivity"}, {"sequence": "QVQLVESGGGLVQAGGSLRLSCAASGRIFGLYTMGWYRQAPGKEREFVAGITYSAGRTYYADSVKGRFTISRDNAKNTVYLQMNSLKPEDTAVYYCAATRRWYPTKLYGYWGQVTQVTVSS", "polyreactivity (PSR sort gate)": "high polyreactivity"}, {"sequence": "QVQLVESGGGLVQAGGSLRLSCAASGRIFGNNAMAWYRQATGKESELVAGISRTGGSTYYADSVKGRFTISRDNAKNTVYLQMNSLKPEDTAVFYCAALVYSGRYASYGYWGQGTQVTVSS", "polyreactivity (PSR sort gate)": "low polyreactivity"}, {"sequence": "QVQLVESGGGLVQAGGSLRLSCAASGRIFGPYAMGWYRQAPGKERELVAAISQRGGTTYYADSVKGRFTISRDNAKNTVYLQMNSLKPEDTAVYYCAAKTYGWGQGTQVTVSS", "polyreactivity (PSR sort gate)": "high polyreactivity"}, {"sequence": "QVQLVESGGGLVQAGGSLRLSCAASGRIFGPYTMGWYRQAPAKEREFVAAITRRGGSTYYADSVKGRFTISRDNAKNTVYLQMNSLKPEDTAVYYCAAVGLKRSLGYSWGQGTQVTVSS", "polyreactivity (PSR sort gate)": "low polyreactivity"}, {"sequence": "QVQLVESGGGLVQAGGSLRLSCAASGRIFGPYTMGWYRQAPGKERELVATISYSGSTTYYADSVKGRFTISRDNAKNTVYLQMNSLKPEDTAVYYCNAQYYVFITFDYWGQGTQVTVSS", "polyreactivity (PSR sort gate)": "high polyreactivity"}, {"sequence": "QVQLVESGGGLVQAGGSLRLSCAASGRIFGQYAMGWYRQAPGKERELVAAITYSTGSTSYADSVKGRFTISRDNAKNTVYLQMNSLKPEDTAVYYCATRKPSVRGVIPTRNSYYYWGQGTQVTVSS", "polyreactivity (PSR sort gate)": "high polyreactivity"}, {"sequence": "QVQLVESGGGLVQAGGSLRLSCAASGRIFGRNAMGWSRQAPGKERELVASITSGGSTNYADSVKGRFTISRYNAKNTVYLQMNSLKPEDTAVYYCNARWTGSYTSTGFRRRFDYWGQGTQVTVSS", "polyreactivity (PSR sort gate)": "high polyreactivity"}, {"sequence": "QVQLVESGGGLVQAGGSLRLSCAASGRIFGRNAMGWYRQAPGKEREFVAAITSSGGNTYYADSVKGRFTISRDNAKNTVYLQMNSLKPEDTAVYYCAARGARYCTSDYWGQGTQVTVSS", "polyreactivity (PSR sort gate)": "high polyreactivity"}, {"sequence": "QVQLVESGGGLVQAGGSLRLSCAASGRIFGRNAMGWYRQAPGKERELVAAISRRSVSTYYADSVKGRFTISRDIAKNTVYLQMNSLKPEETAVYYCAARKSLTTPYGYWGQGTQVTVSS", "polyreactivity (PSR sort gate)": "high polyreactivity"}, {"sequence": "QVQLVESGGGLVQAGGSLRLSCAASGRIFGRNAMGWYRQAPGKERELVAAISSSGGTYYADSVKGRFTISRDNAKNTVYLQMNSLKPEDTAVYYCNARVRTQQRWVDYWGQGTQVTVSS", "polyreactivity (PSR sort gate)": "high polyreactivity"}, {"sequence": "QVQLVESGGGLVQAGGSLRLSCAASGRIFGRNAMGWYRQAPGKERELVAAISSSGGTYYADSVKGRFTISRDNAKNTVYLQMNSLKPEDTAVYYCTARVRTQQRWVDYWGQGTQVTVSS", "polyreactivity (PSR sort gate)": "high polyreactivity"}, {"sequence": "QVQLVESGGGLVQAGGSLRLSCAASGRIFGRNVMGWYRQAPGKERELVAAITTGGGSTYYADSVKGRFTISRDNAKNTVYLQMNSLKPEDTAVYYCATDRRHEYSSRRYYYWGQGTQVTVSS", "polyreactivity (PSR sort gate)": "high polyreactivity"}, {"sequence": "QVQLVESGGGLVQAGGSLRLSCAASGRIFGRYAMGRYRRAPGKESEFVAAIDGGGGRTYADSVKGRFTISRDNAKNTVYLQMNSLKPEDTAVYYCNAYVYSIHWGDLYWSEYDYWGQGTQVTVSS", "polyreactivity (PSR sort gate)": "high polyreactivity"}, {"sequence": "QVQLVESGGGLVQAGGSLRLSCAASGRIFGRYAMGWYIQAPGKERELVAAISRSGGITYYADSVKGRFTISRDNAKNTVYLQMNSLKPEDTAVYYCAAYRAGNSYYPRLNYWGQGTQVTVSS", "polyreactivity (PSR sort gate)": "high polyreactivity"}, {"sequence": "QVQLVESGGGLVQAGGSLRLSCAASGRIFGRYAMGWYRQAPGKEREFVAAISWRGGTTYYADSVKGRFTISRDNAKNTVYLQMNSLKPEDTAVYYCNARYQTGGYGYWGQGTQVTVSS", "polyreactivity (PSR sort gate)": "high polyreactivity"}, {"sequence": "QVQLVESGGGLVQAGGSLRLSCAASGRIFGRYAMGWYRQAPGKERELVAAISSRGSRTYYADSVKGRFTISRDNAKNTVYLQMNSLKPEDTAVYYCAATWLSNPSDYDYWGPGTQVTVSS", "polyreactivity (PSR sort gate)": "high polyreactivity"}, {"sequence": "QVQLVESGGGLVQAGGSLRLSCAASGRIFGRYAMGWYRQAPGKEREVVATITRNGGGTYADSVKGRFTISRDNAKNTVYLQMNSLKPEDTAVYYCAVDTAAAWERRGFDSWGQGTQVTVSS", "polyreactivity (PSR sort gate)": "low polyreactivity"}, {"sequence": "QVQLVESGGGLVQAGGSLRLSCAASGRIFGRYTMGWYRQAPGKERELVAAISARGGSTYYADSVKGRFTISRDNAKNTVYLQMNSLKPEDTAVYYCDAEYVVWYLDRFNYWGQGTQVTVSS", "polyreactivity (PSR sort gate)": "high polyreactivity"}]}]}
